Laboratory results as given in the supplement of paper PMC9170038.

System: MS2 coat protein
Assay: apparent KD of MS2 coat protein; higher = weaker reporter binding
Settings: Eterna round: R107
Experimental: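 RNA-MaP round R107: designed RNA switches with theophylline, tryptophan, arginine or FMN aptamers are transcribed on-chip within common flanks. They are titrated with SNAP-549-labelled MS2 coat protein in RNA-MaP buffer (100 mM Tris pH 7.5, 80 mM KCl, 4 mM MgCl2), without ligand or with the indicated ligand. Median apparent KD per design.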

[1] = input ligand: theophylline 20 uM
[2] = input ligand: theophylline 2 mM
[3] = input ligand: tryptophan 2.4 mM

Sequence	apparent KD of MS2 coat protein (input ligand: arginine 13.2 mM)	apparent KD of MS2 coat protein [1]	apparent KD of MS2 coat protein [2]	apparent KD of MS2 coat protein (input ligand: none)	apparent KD of MS2 coat protein [3]
AAUGGGCGAGUAGAGCAUAAUUUCCACUCCCGAGGACCGGUACGGCCGCCACUCGUUCGCUCACAUGAGGAUCACCCAUGUGGUC [theeternabot_exclusion_MS2_Trp_A_17]	24.7 nM	32.3 nM	40.3 nM	–	–
AAUGGUCGUACUGGAAUGGUGAUCCUCAAACGAGGACCGGUACGGCCGCCACUCGAUAACAUGAGGAUCACCCAUGUAAUAAUAA [|T'-M'-Trp-Ms2|_Design13b]	26 nM	67.4 nM	55.2 nM	–	–
AAUGUAUGCCACAUGAGGAUCACCCAUGUGCGAGGACCGGUACGGCCGCCACUCGGUCGGUGGUUAAUGAAGAUAUACAAUAAUG [XTryp A #12]	10.6 nM	20.9 nM	13.5 nM	–	–
AAUGUAUGGCACAUGAGGAUCACCCAUGUGCGAGGACCGGUACGGCCGCCACUCGGUCCUGGGAUCUUAAUACUAUACAUUAAUG [XTryp A #19]	10.3 nM	15.1 nM	13.9 nM	–	–
AAUGUGAAGGCGGCCGCCACUGAUAAUAGACAUGAGGAUCACCCAUGUAUAAAUCCUCAAUAAGACAGGACCGGGCCAACUACGU [Exclusion Tryptophan B GF 1]	93 nM	114 nM	136 nM	–	–
AAUUAUCAGUCGGCCGCCACUGACACAUGAGGAUCACCCAUGUAACAUGGGUAAAAUUAACUGAACAGGACCGGGACAAAGGCUA [JR_ExcTryptoB_Sub008]	179 nM	671 nM	740 nM	–	–
AAUUCCUAACAUGAGGAUCACCCAUGUGAAGGAGCGCCGAAUAAGGCAGGUAGGUCGCACAUGGAACCGCUACGAAAGUAGCAAA	22.5 nM	23.6 nM	21.6 nM	23.5 nM	17.8 nM
ACACGGAAUGAUGGAUCACCUCGUUAAUAACGAGGACCGGUACGGCCGCCACUCGAAAACCGUGACCUGUACGAAAAGUGCAGGA [TrypAS 15 #SwitchBubble #HomemadeMS2 #StaticStrem #MS2Early]	27.3 nM	314 nM	488 nM	33.6 nM	76.1 nM
ACAUACAUGAGGAUCACCCAUGUCCAUGUUCGAGGACCGGUACGGCCGCCACUCGCGCGACAGCAUGAGGAACUUGAGGAUCACA [Exclusion Tryptophan A]	39.5 nM	104 nM	82.2 nM	63.8 nM	48.8 nM
ACAUGAAGAACAGCGGUGGGCGCGCUCGAUACCAGUAUUUUAAAUUACCCUUGGCAGCGACAUGAGGAUCACCCAUGUGAGAUGA [XTheo A #5]	22.5 nM	24.8 nM	33.8 nM	18.1 nM	18 nM
ACAUGAGGAUCACCCAUGUAAAUAACGGAAGGAGCGUGCAAAAGCACAGGUAGGUCGCCGAUAUAAAUAUUGGGUAAUAUAUUAU [ExyArgA#1]	25 nM	41.5 nM	28.2 nM	34.2 nM	28 nM
ACAUGAGGAUCACCCAUGUAAUAAUCAGAAGGAGCGUGGAAUAACACAGGUAGGUCGCUGAUGUUUGGUUAAAUGUAAUCGUGUA [JR_SSArginiA_Sub001]	13 nM	18.1 nM	17.6 nM	13.5 nM	17.1 nM
ACAUGAGGAUCACCCAUGUAAUACCGGGAAGGAGCGCGUAAGGACGCAGGUAGGUCGCUCGGCGUCCGGCCGCAAGGCCGGACGA [#1 Same State - Arginine A Attempt #12 (HarryS)]	21 nM	24.3 nM	10.7 nM	14.4 nM	14.7 nM
ACAUGAGGAUCACCCAUGUAUCAACGGGAAGGAGCGCCAAACAAGGCAGGUAGGUCGCCCACAUGAGGAUCACCCAUGUGUUGGU [Exclusion Arginine A GF 29]	20.6 nM	25.8 nM	24.9 nM	21.4 nM	21.1 nM
ACAUGAGGAUCACCCAUGUAUGACUAUCCUCGAGGACCGGUACGGCCGCCACUCGAACGAGUGGCUCGCGAGUGCGCACUCGCGA [5' end]	11.7 nM	16.6 nM	11.3 nM	13.3 nM	10.3 nM
ACAUGAGGAUCACCCAUGUAUGACUAUCCUCGAGGACCGGUACGGCCGCCACUCGAAGGAGUGGCUCGCGAGUGCGCACUUGCGA [5' end]	10.9 nM	19.2 nM	11.8 nM	11.9 nM	12.1 nM
ACAUGAGGAUCACCCAUGUAUGAUGUUCCUCGAGGACCGGUACGGCCGCCACUCGAACGAGUGGCGCGCGCGCGCGCGCGCGCGC [aUa]	54.8 nM	35.1 nM	22.7 nM	16.5 nM	16.4 nM
ACAUGAGGAUCACCCAUGUCAAGGCACGAUACCAGCUGAUCCCGUGGCCCUUGGCAGCGUCACGUUUGGUCCCGCGGAUGACACG [zczmullin]	38.4 nM	111 nM	–	–	86.9 nM
ACAUGAGGAUCACCCAUGUCACGGCACGAUACCAGCUGAUGCGGUGGCCCUUGGCAGCGUGACGUUUGGUCCCGCGGAUGACGGG [zzmullin]	36.6 nM	74.3 nM	–	–	53.2 nM
ACAUGAGGAUCACCCAUGUCAGGGCACGAUACCAGCUGAUCCGGUGGCCCUUGGCAGCGUGACGUGUGGUCAUGAGGAUCACCCG [wsmullin]	283 nM	642 nM	638 nM	520 nM	464 nM

Sequence	apparent KD of MS2 coat protein (input ligand: arginine 13.2 mM)	apparent KD of MS2 coat protein [1]	apparent KD of MS2 coat protein [2]	apparent KD of MS2 coat protein (input ligand: none)	apparent KD of MS2 coat protein [3]
ACAUGAGGAUCACCCAUGUCAUGAGGUUCACGAGGACCGGUACGGCCGCCACUCGACAUGAGGGUCACCCAUGUGAGGAACACCC [mamullun]	117 nM	278 nM	579 nM	–	–
ACAUGAGGAUCACCCAUGUCUGCCUCGGAUACCAGCGGAAGAAAACGCCCUUGGCAGCCGAACAUGAGGAUCACCCAUGUAGGCU [Same State Theophylline A GF30]	28.8 nM	55.1 nM	–	–	45.2 nM
ACAUGAGGAUCACCCAUGUGAAGGCACGAUACCAGCUGAUCCCGUGGCCCUUGGCAGCGUCCGGUGUGGUCCGGCGGGUGGGACG [bbvmullin]	25.8 nM	75.4 nM	50.3 nM	29 nM	24.4 nM
ACAUGAGGAUCACCCAUGUUCCUCGCCGAUACCAGUGAAGAAGAACGCCCUUGGCAGCGGAAAGAAUAUUUUGGAGAUGAGGUAU [6.W]	120 nM	219 nM	–	–	165 nM
ACAUGAGGAUCACCCAUGUUCCUCGCCGAUACCAGUGAAGAAGAACGCCCUUGGCAGCGGAAAGAGUAUUUUGGAGAUGAGGUAC [6.X]	72.5 nM	134 nM	–	–	124 nM
ACAUGAGGGAUGGAUACCAGCGACAUGAGGAUCACCCAUGUAUGAGGAUCAGCCAUGUUAUGCCCUUGGCAGCCACGAACAUGAG [ACFMULLIN]	26.2 nM	103 nM	235 nM	35.6 nM	37.2 nM
ACAUGGGUCUGAAGGAGCGCGAUAACAUGAGGAUCACCCAUGUAAAAUGGAACAUGAUAAUCGCAGGUAGGUCGCAGUAAAACCC [Same State Arginine B GF 11]	133 nM	344 nM	704 nM	303 nM	365 nM
ACAUUUAACUGAAGGAGCGUGAAUAACAUGAGGAUCACCCAUGUAACUUAGAUGCUUAUUUCACAGGUAGGUCGCAGACUAAUGA [JR_ExcArginiB_Sub010]	10.4 nM	13.7 nM	10.3 nM	10.3 nM	10.9 nM
ACAUUUAACUGAAGGAGCGUGAAUAACAUGAGGAUCACCCAUGUAACUUAGAUUCUUAUAUCACAGGUAGGUCGCAGACUAAUGA [JR_ExcArginiB_Sub012]	24.9 nM	25.7 nM	21.5 nM	17 nM	19 nM
ACAUUUAACUGAAGGAGCGUGAUAAACAUGAGGAUCACCCAUGUACCAAAGAUUUUCAGAUCACAGGUAGGUCGCAGACUAAUGA [JR_ExcArginiB_Sub015]	12.8 nM	16.7 nM	12.6 nM	11.7 nM	13.3 nM
ACCGCAUCCGUAUAGGAUGCGGCCCAUGAAGGAGCGUGGGAAACCACAGGUAGGUCGCAUGACAUGAGGAUCACCCAUGUUUAUU [Matrix]	27.8 nM	52.7 nM	40.9 nM	44.2 nM	33.9 nM
ACCGCAUCCGUAUAGGAUGCGGCCCAUGAAGGAGCGUGGGAAACCACAGGUAGGUCGCAUGGACAUGAGGAUCACCCAUGUUAUU [Inception]	43.7 nM	79.3 nM	62.7 nM	59.8 nM	48.3 nM
ACGAACGCACCUGAGGAACACCCAGGUGAUACCAGCCUGGAAACAGGCCCUUGGCAGCACCUAAAAUAAAGGUAACGUUCGAAUA [TheoAX8 #MicroSwitchBubble #AlternativeMS2]	171 nM	231 nM	180 nM	126 nM	98.9 nM
ACGACGCAUAGUGAUACCAGCACAACAUGAGGAUCACCCAUGUCACAUAUGUUGUAAUAAUGCCCUUGGCAGCACUAUGCGUCAG [SSTheo B #2]	34.6 nM	83.3 nM	–	–	50.8 nM
ACGGAUCGGAAACGAUCCGCGGCGCGGGUGCGAGGACCGGUACGGCCGCCACUCGGGUAACAUGAGGAUCACCCAUGUCCGAUUU [ETA NP+V+V2 #12]	65.7 nM	101 nM	129 nM	–	–
ACGUCCGGAUUGAUCGUGGGCAUGGUCGAUACCAGUAUUUUAAUCUACCCUUGGCAGCGACAUGAGGAUCACCCAUGUGCGAUGA [XTheo A #19]	16.1 nM	21.5 nM	–	–	16.2 nM
ACUAGAGGUGGAAGGAGCGGGAGACAUGAGGAUCACCCAUGUGAAGUUUCGAGAGGAUCAUCCCAGGUAGGUCGCCAUGUCGAAA [vvbvmullin]	35.3 nM	46.9 nM	61.6 nM	27.4 nM	43.7 nM
AGACAUGAGGAUCACCCAUGUAGCACGGAUACCAGAUCCAGAUUUAUCCCUUGGCAGCUGUGGUACAGCGUUGCAACGCUCCUAG [Exclusion - Theophylline A (Freestyle 16)]	17.6 nM	23.2 nM	–	–	17.1 nM
AGACGAGAAGAGGAUUACCCAUGUACAGAAGGAGCGUCGUUGACGACAGGUAGGUCGCUGAGAACAUGAGGAUCACCCAUGUUGA [Arg A Ex t1]	29.9 nM	53.9 nM	39.8 nM	42.9 nM	36 nM
